Two molecules from patent US20190031748A1 can be followed below.

Assay [1] concerns the target N-terminal biotin labelled human CGRP (Abgent Custom Synthesized Peptide #355061532) (human) (UniProt P06881). Nature of the assay: ELISA; Fab captured on anti-human kappa; N-terminal biotin CGRP at 0.082 nM; 2 h dissociation step; neutravidin-AP detection. In general terms: In an ELISA, binding on a coated surface is turned into a signal by an enzyme label.
Assay [2] shares this target. Nature of the assay: ELISA; Fab captured on anti-human kappa; N-terminal biotin CGRP at 2.222 nM; 2 h dissociation step; neutravidin-AP detection.
Assay [3] shares this target. In words: ELISA; Fab captured on anti-human kappa; N-terminal biotin CGRP at 0.027 nM; 2 h dissociation step; neutravidin-AP detection.
The target is the same in assay [4]. In words: ELISA; Fab captured on anti-human kappa; N-terminal biotin CGRP at 0.247 nM; 2 h dissociation step; neutravidin-AP detection.
The target is the same in assay [5]. Nature of the assay: ELISA; Fab captured on anti-human kappa; N-terminal biotin CGRP at 0.009 nM; 2 h dissociation step; neutravidin-AP detection.
For assay [6] the target is unchanged. In words: ELISA; Fab captured on anti-human kappa; N-terminal biotin CGRP at 0.741 nM; 2 h dissociation step; neutravidin-AP detection.
Assay [7] has the same target. Nature of the assay: ELISA; Fab captured on anti-human kappa; N-terminal biotin CGRP at 6.667 nM; 2 h dissociation step; neutravidin-AP detection.
The target is the same in assay [8]. Nature of the assay: ELISA; Fab captured on anti-human kappa; N-terminal biotin CGRP at 20 nM; 2 h dissociation step; neutravidin-AP detection.
For assay [9], the target named is human CGRP (human) (UniProt P06881). In words: Quanterix Simoa sandwich assay; Antibody II beads capture, biotinylated CA11 detection; CGRP at 0.0076 pg/mL.
The target is the same in assay [10]. Nature of the assay: Quanterix Simoa sandwich assay; Antibody II beads capture, biotinylated CA11 detection; CGRP at 0.07 pg/mL.
Assay [11] has the same target. In words: Quanterix Simoa sandwich assay; Antibody II beads capture, biotinylated CA11 detection; CGRP at 50 pg/mL.
The target is the same in assay [12]. In words: Quanterix Simoa sandwich assay; Antibody II beads capture, biotinylated CA11 detection; CGRP at 0.21 pg/mL.
The target is the same in assay [13]. In words: Quanterix Simoa sandwich assay; Antibody II beads capture, biotinylated CA11 detection; CGRP at 1.85 pg/mL.
For assay [14] the target is unchanged. Nature of the assay: Quanterix Simoa sandwich assay; Antibody II beads capture, biotinylated CA11 detection; CGRP at 0.02 pg/mL.
Assay [15] shares this target. In words: Quanterix Simoa sandwich assay; Antibody II beads capture, biotinylated CA11 detection; CGRP at 5.56 pg/mL.
Assay [16] has the same target. Nature of the assay: Quanterix Simoa sandwich assay; Antibody II beads capture, biotinylated CA11 detection; CGRP at 0.62 pg/mL.
Assay [17] has the same target. In words: Quanterix Simoa sandwich assay; Antibody II beads capture, biotinylated CA11 detection; CGRP at 16.67 pg/mL.

B1: CA11 Fab (Fab, V domains shown)
VH: EVQLQQSGPELVKPGASVKMSCKASGYTFTRSVMHWVKQKPGQGLEWIGYINPYNDGTKYNEKFKGKATLTSDKSSSTAYMELSSLTSEDSAVYYCAKSGNDGYWGQGTTLTVSS
VL: EIVLTQSPTTMAASPGEKITITCSASSSISSIYLHWYQQKPGFSPKVLIYRAKNLASGVPARFSGSGSGTSYSLTIGTMEAEDVATYYCQQGSTIPFTFGSGTKLEIK
Turning to B1, the A560 in [1] amounted to 0.091 A560; in assay [2] it was 0.688 A560; in [3], 0.063 A560; in [4], 0.165 A560; in assay [5] it was 0.082 A560; in [6], 0.356 A560. The A560 in assay [7] came out at 1.03 A560; in assay [8] it was 1.05 A560.

B2: CA11 antibody (mouse IgG1/kappa) (antibody, V domains shown)
VH: B1 VH
VL: EIVLTQSPTTMAASPGEKITITCSASSSISSIYLHWYQQKPGFSPKVLIYRAKNLASGVPARFSGSGSGTSYSLTIGTMEAEDVATYYCQQGSTIPFTFGSGTKLEIKR
Take B2: the Average AEB (AEB (average enzyme per bead)) with human CGRP (human) [9] was found to be 0.0079; in the assay with human CGRP (human) [10], 0.011; with human CGRP (human) [11] it was 2.99; with human CGRP (human) [12], 0.02; with human CGRP (human) [13], 0.13; in the assay with human CGRP (human) [14], 0.0075. The Average AEB (AEB (average enzyme per bead)) in the assay with human CGRP (human) [15] came to 0.42; in the assay with human CGRP (human) [16] it was 0.06; with human CGRP (human) [17], 1.18.
